Measurements from US20160000910A1 (AC IMMUNE S A, published 2016).

T1: biotinylated Aβ17-40 peptide (biotinylated (position not given))
T1 construct: Peptide from Anaspec
T1 peptide: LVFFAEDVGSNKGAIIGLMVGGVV


Key:
[1] = biological target: Aβ1-42 peptide (Thioflavin T assay); test: cell-based or functional assay
Aβ1-42 library peptide 1 = test: peptide library ELISA, 10 µg/ml mAb
Excerpt: (§1) The peptides in the peptide library were composed of 8, 9 or 10-mer aa peptides. A biotinylated complete Aβ1-42 peptide (human sequence) was used as positive control (Bachem, Bubendorf, Switzerland). In addition, longer peptides covering Aβ1-28, Aβ17-40, Aβ1-40 and Aβ1-42 were used to define the broader region to which these antibodies may bind. These 4 peptides were also biotinlyated (manufactured by Anaspec and purchased from ANAWA Trading SA, Switzerland). Epitope mapping was done according to the manufacturer's (Mimotopes) instructions. Briefly, Streptavidin coated plates (NUNC, Roskilde, Denmark) were blocked with 0.1% BSA in PBS overnight at 4° C. After washing with PBS-0.05% Tween 20, plates were coated for 1 hour at RT with the different peptides from the library, diluted in 0.1% BSA, 0.1% Sodium Azide in PBS to a final concentration of 10 μM. […] Plates were washed again and incubated with alkaline phosphatase conjugated goat anti mouse IgG (Jackson Immunresearch West Grove, Pa., USA) for 1 h at RT. After final washing, plates were incubated with phosphatase substrate (pNPP, Sigma-Aldrich, St Louis, Mo., USA) and read after 3 hours of incubation at 405 nm using an ELISA plate reader.

Aβ1-42 library peptide 2 = test: peptide library ELISA, 10 µg/ml mAb
Excerpt: as §1

Aβ1-42 library peptide 3 = test: peptide library ELISA, 10 µg/ml mAb
Excerpt: as §1

Aβ1-42 library peptide 4 = test: peptide library ELISA, 10 µg/ml mAb
Excerpt: as §1

Aβ1-42 library peptide 5 = test: peptide library ELISA, 10 µg/ml mAb
Excerpt: as §1

Aβ1-42 library peptide 6 = test: peptide library ELISA, 10 µg/ml mAb
Excerpt: as §1

Aβ1-42 library peptide 7 = test: peptide library ELISA, 10 µg/ml mAb
Excerpt: as §1

Aβ1-42 library peptide 8 = test: peptide library ELISA, 10 µg/ml mAb
Excerpt: as §1

Aβ1-42 library peptide 9 = test: peptide library ELISA, 10 µg/ml mAb
Excerpt: as §1

[2] = biological target: Aβ1-42 library peptide 10; test: peptide library ELISA, 10 µg/ml mAb
Excerpt: as §1

[3] = biological target: Aβ1-42 library peptide 11; test: peptide library ELISA, 10 µg/ml mAb
Excerpt: as §1

[4] = biological target: Aβ1-42 library peptide 12; test: peptide library ELISA, 10 µg/ml mAb
Excerpt: as §1

[5] = biological target: Aβ1-42 library peptide 13; test: peptide library ELISA, 10 µg/ml mAb
Excerpt: as §1

[6] = biological target: Aβ1-42 library peptide 14; test: peptide library ELISA, 10 µg/ml mAb
Excerpt: as §1

[7] = biological target: Aβ1-42 library peptide 15; test: peptide library ELISA, 10 µg/ml mAb
Excerpt: as §1

[8] = biological target: Aβ1-42 library peptide 16; test: peptide library ELISA, 10 µg/ml mAb
Excerpt: as §1

[9] = biological target: Aβ1-42 library peptide 17; test: peptide library ELISA, 10 µg/ml mAb
Excerpt: as §1

[10] = biological target: Aβ1-42 library peptide 18; test: peptide library ELISA, 10 µg/ml mAb
Excerpt: as §1

[11] = biological target: Aβ1-42 library peptide 19; test: peptide library ELISA, 10 µg/ml mAb
Excerpt: as §1

[12] = biological target: Aβ1-42 library peptide 20; test: peptide library ELISA, 10 µg/ml mAb
Excerpt: as §1

[13] = biological target: Aβ1-42 library peptide 21; test: peptide library ELISA, 10 µg/ml mAb
Excerpt: as §1

[14] = biological target: Aβ1-42 library peptide 22; test: peptide library ELISA, 10 µg/ml mAb
Excerpt: as §1

[15] = biological target: Aβ1-42 library peptide 23; test: peptide library ELISA, 10 µg/ml mAb
Excerpt: as §1

[16] = biological target: Aβ1-42 library peptide 24; test: peptide library ELISA, 10 µg/ml mAb
Excerpt: as §1

[17] = biological target: Aβ1-42 library peptide 25; test: peptide library ELISA, 10 µg/ml mAb
Excerpt: as §1

[18] = biological target: Aβ1-42 library peptide 26; test: peptide library ELISA, 10 µg/ml mAb
Excerpt: as §1

[19] = biological target: Aβ1-42 library peptide 27; test: peptide library ELISA, 10 µg/ml mAb
Excerpt: as §1

[20] = biological target: Aβ1-42 library peptide 28; test: peptide library ELISA, 10 µg/ml mAb
Excerpt: as §1

[21] = biological target: Aβ1-42 library peptide 29; test: peptide library ELISA, 10 µg/ml mAb
Excerpt: as §1

[22] = biological target: Aβ1-42 library peptide 30; test: peptide library ELISA, 10 µg/ml mAb
Excerpt: as §1

[23] = biological target: Aβ1-42 library peptide 31; test: peptide library ELISA, 10 µg/ml mAb
Excerpt: as §1

[24] = biological target: Aβ1-42 library peptide 32; test: peptide library ELISA, 10 µg/ml mAb
Excerpt: as §1

[25] = biological target: Aβ1-42 library peptide 33; test: peptide library ELISA, 10 µg/ml mAb
Excerpt: as §1

[26] = biological target: T1, biotinylated Aβ17-40 peptide; test: ELISA, biotinylated peptide on streptavidin plate
Excerpt: as §1

[27] = biological target: T1, biotinylated Aβ17-40 peptide; test: ELISA, biotinylated peptide (Anaspec) on streptavidin plate, 10 µg/ml mAb
Excerpt: as §1

[28] = biological target: T2, biotinylated Aβ1-40 peptide (biotinylated (position not given)); test: as above
T2 construct: Peptide from Anaspec; also called Ab1-40
Excerpt: as §1

[29] = biological target: T3, biotinylated complete Aβ1-42 peptide (human sequence) (human, biotinylated (position not given)); test: peptide library ELISA, complete Aβ1-42 (Bachem) as positive control, 10 µg/ml mAb
T3 construct: Same peptide from two suppliers (1-42A Anaspec, 1-42B Bachem); the supplier is named under assay; also called Ab1-42; 1-42A (Anaspec)
Excerpt: as §1

Aβ1-42 peptide (Thioflavin T assay), sequence (peptide, as listed by the source): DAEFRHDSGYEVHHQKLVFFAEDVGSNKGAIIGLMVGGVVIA
T3 sequence (peptide, as listed by the source): as above

Binder	disaggregation of pre-aggregated Aβ1-42, Thioflavin T fluorescence, antibody to Aβ1-42 molar ratio 1:10 [1]	disaggregation of pre-aggregated Aβ1-42, Thioflavin T fluorescence, antibody to Aβ1-42 molar ratio 1:100 [1]	inhibition of Aβ1-42 aggregation, Thioflavin T fluorescence, antibody to Aβ1-42 molar ratio 1:10 [1]	inhibition of Aβ1-42 aggregation, Thioflavin T fluorescence, antibody to Aβ1-42 molar ratio 1:100 [1]	O.D. (Aβ1-42 library peptide 1)	O.D. (Aβ1-42 library peptide 2)	O.D. (Aβ1-42 library peptide 3)	O.D. (Aβ1-42 library peptide 4)	O.D. (Aβ1-42 library peptide 5)	O.D. (Aβ1-42 library peptide 6)	O.D. (Aβ1-42 library peptide 7)	O.D. (Aβ1-42 library peptide 8)	O.D. (Aβ1-42 library peptide 9)	O.D. [2]	O.D. [3]	O.D. [4]	O.D. [5]	O.D. [6]	O.D. [7]	O.D. [8]	also measured
mouse monoclonal antibody ACI-11-Ab-9 (antibody, V domains shown, also called clone FG1F9E4; DSM ACC2845) VH: QVQLQQSDAELVKPGASVKISCKVSGYTFTDHTIHWMKQRPEQGLEWIGYIYPRDGSTKYNEKFKGKATLTADKSSSTAYMQLNSLTSEDSAVYFCARDYGYAFDYWGQGTTLTVSS VL: QAVVTQESALTTSPGGTVILTCRSSTGAVTTSNYANWVQEKPDHLFTGLIGGTSNRAPGVPVRFSGSLIGDKAALTITGAQTEDDAMYFCALWYSTHYVFGGGTKVTVL	52%	22%	69%	34%	0.1 O.D.	0.1 O.D.	0.12 O.D.	0.11 O.D.	0.11 O.D.	0.11 O.D.	0.11 O.D.	0.11 O.D.	0.11 O.D.	0.13 O.D.	0.11 O.D.	0.24 O.D.	0.17 O.D.	0.16 O.D.	0.14 O.D.	0.14 O.D.	O.D. [9]: 0.13 O.D.; O.D. [10]: 0.11 O.D.; O.D. [11]: 0.1 O.D.; O.D. [12]: 0.1 O.D.; O.D. [13]: 0.1 O.D.; O.D. [14]: 0.1 O.D.; O.D. [15]: 0.11 O.D.; O.D. [16]: 0.1 O.D.; O.D. [17]: 0.11 O.D.; O.D. [18]: 0.12 O.D.; O.D. [19]: 0.13 O.D.; O.D. [20]: 0.12 O.D.; O.D. [21]: 0.2 O.D.; O.D. [22]: 0.11 O.D.; O.D. [23]: 0.12 O.D.; O.D. [24]: 0.12 O.D.; O.D. [25]: 0.11 O.D.; binding result [26]: no binding (tested: 10 µg/ml); O.D. after background subtraction (mean) [27]: 0.02 O.D.; O.D. after background subtraction (mean) [28]: 1.02 O.D.
mouse monoclonal antibody ACI-12-Ab-11 (antibody, V domains shown, also called clone FK2A6A6; DSM ACC2846) VH: QVQLQQSDAELVKPGASVKISCKVSGYTFTDHTIHWMKQRPEQGLEWIGYIYPRDGSTKYNEKFKGKATLTADKSSSTAYMQLNSLTSEDSAVYFCARDYGYAFDYWGQGTTLTVSS VL: QAVVTQESALTTSPGGTVILTCRSSTGAVTTSNYANWVQEKPDHLFTGLIGGTSNRAPGVPVRFSGSLIGDKAALTITGAQTEDDAMYFCALWYSTHYVFGGGTKVTVL	54%	18%	66%	30%	0.1 O.D.	0.1 O.D.	0.11 O.D.	0.1 O.D.	0.1 O.D.	0.1 O.D.	0.1 O.D.	0.1 O.D.	0.1 O.D.	0.1 O.D.	0.11 O.D.	0.21 O.D.	0.15 O.D.	0.12 O.D.	0.1 O.D.	0.14 O.D.	O.D. [9]: 0.12 O.D.; O.D. [10]: 0.1 O.D.; O.D. [11]: 0.1 O.D.; O.D. [12]: 0.1 O.D.; O.D. [13]: 0.09 O.D.; O.D. [14]: 0.1 O.D.; O.D. [15]: 0.1 O.D.; O.D. [16]: 0.1 O.D.; O.D. [17]: 0.11 O.D.; O.D. [18]: 0.12 O.D.; O.D. [19]: 0.12 O.D.; O.D. [20]: 0.11 O.D.; O.D. [21]: 0.11 O.D.; O.D. [22]: 0.11 O.D.; O.D. [23]: 0.11 O.D.; O.D. [24]: 0.11 O.D.; O.D. [25]: 0.11 O.D.; O.D. after background subtraction (mean) [27]: -0.02 O.D.; O.D. after background subtraction (mean) [28]: 0.62 O.D.; O.D. [29]: 0.69 O.D.
